Assay results from PMC8162069.

System: O=C[C@H](O)COP(=O)(O)O
Experiment: purified protein
Assay type: biochemical, Homo sapiens
Conditions: without HA

| Substance | Km [µM] | kcat [s⁻¹] | kcat/Km [M⁻¹ s⁻¹] |
| --- | --- | --- | --- |
| Hs-GAPDH (Homo sapiens; A232S/F233V) | 490 ± 210 | 7.67 ± 2 | 15700 |
| Hs-GAPDH (Homo sapiens) | 240 ± 20 | 21.7 ± 1.67 | 90000 |
